Results published in the nanobody polyreactivity screen of Harvey et al. (2022).

Assay: yeast display, Sf9 membrane polyspecificity reagent, FACS + sequencing; frameworks hold sequencing errors
Procedure, shortened: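 After 36–48 hours of galactose induction, yeast (Saccharomyces cerevisiae BJ5465) displaying a synthetic nanobody library were stained at 4 °C for 1 hour with 10% biotinylated, detergent-solubilized Sf9 membrane reagent. Streptavidin microbeads enriched the stained cells before FACS sorting into low and high (top ~1%) gates on anti-HA and streptavidin fluorescence. Each clone's polyreactivity label reflects its gate of origin.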

Row | Sequence | polyreactivity (PSR sort gate)
1 | QVQLVESGGGLVQAGGSLRLSWAASGSIFFFNAMGWYRQAPGKEREFVAAITSSSGRTYYADSVKGRFTISRDNAKNTVYLQMNRLKPEDTAVYYCAAQVPEDTETVDYWGQGTQVTVSS | low polyreactivity
2 | QVQLVESGGGLVQAGGSLRLSCAASGSNIKYYAMGWYRQAPGKERELVARITSDGGSTFYADSVKGRFTISRDNAKNTVYLQMNSLKPEDTAVYYCNTAYAFRHCWFYPMDYWGQGTQVTVSS | high polyreactivity
3 | QVQLVETAGGLVHAGGSLRLSCADSGRIFERNAMGWNRQSPGKERELVARITSGGGTYYADSVKGRFTISRDNAKNTVYLQMNSLKPEDTAVYYCAVQYLYRKYRRYDYWGQGTQVTVSS | high polyreactivity
4 | QDQLVESGGGLVQAGGSLRLSCAASGSIFPSNTMGWYRQAPGKERELVAAITGSGGSTYYADSVKGRFTISRDNAKNTVYLQMNSLKPEDTAVYYCAARYRVDGVKYGYWGQGTQVTVSS | high polyreactivity
5 | QVQLVESGGGLVQAGGSLRLSCAASGIIFNGYAMGWYRQAPGKERELVAAISSSGGRTYYADSVKGRFTISRDNAKNTVYLQMNSLKPEDTAVYYCAADAAGSRVYPYDYWGQGTQVTVSS | high polyreactivity
6 | QVQLVESGGGLVQAGGSLRLSCAASGFIFALYAMGWYRQAPGKERELVASISKSGARTYYADSVKGRFTISRDNAKNTVDLQMNSLKPEDPAVYYCAALYRTGGIQYAGYGYWGQGTQVTVSS | high polyreactivity
7 | QVQLVESGGGLVQAGGSLRLSCDASGLTFDQYAMGWYRQGPGKERELVAAISGSDSTYYADSVKGRFTISRDNAKNTVYLQMNSLKPEDTAVYYCAASGDYVNIITGERFDARLYDYWGQGTQVTVSS | low polyreactivity
8 | QVQIVESGGGLVQAGGSLRLSCAASGSISVPYGMGWYRQAPGKERELVAAISGGSTNYADSVKGRFTISRDNAKNTVYLQMNSLKPEDTAVYFCAADWWAWYTRYDYWGQGSQVTVSS | low polyreactivity
9 | QVQLVESGGGLVQAGGSLRLSCAASGFTFIYNAMGWYRQAPGKERELVAAITGGGGSTYYADSVKGRFTISRDNAKYTVYLQMNSLKPEDTAVYYCNVYYPQSGVTYDYWGQGTLVTVSS | low polyreactivity
10 | QVQLVESGGGLVQGGGSLRLSCAASGSIFTRNAMGWYRQAPGKEREFVAAISSSGVSTYYADSVKGRFTISRDNAKNTVYLQMNSLKPEDTALYYCAARWGTKSGRYDYWGQGTQVTVSS | high polyreactivity
11 | QVQLVESGGGLVQAGGSLRLSCAASGGIFFSNVMGWYRQAPGKERELVAAITSGDNTNYADSVKGRFTISRDNAKNTVYLQMNSLKPEDTAVYYCNADVASEYSDKYDYWGQGTQVTVSS | low polyreactivity
12 | QVQLVETGGGLVQAGGSLRLSCAASGGIFLVNDMGWYRPAPGKERELVAAISGSGGSTYYADSVKGRVTISRDNAKNTVYLQMNSLKPEDTAVYYCAAVGTHKAGGAYNYWGQGTQVTVSS | low polyreactivity
13 | QVQLVESGGGLVQAGGSLRLSCAASGSIFYTNAMGWYRQAPGKEREFVAGITRRGTSTNYADSVKGRFTISRDKAKNTVYLQMNSQKPEDTAVYYCNARYYLYWGQGTQVTVSS | low polyreactivity
14 | QVRLVESGGGLVQAGCSLRLSCAASGSTFWSYAMGWYRQAPGKERELVAAISWSGDSTYYADSVKGRFTISRDNAKNTVYLQMNSLKPEDSAVYYCAADYTGSFYTYDYWGQGTQVTVSS | low polyreactivity
15 | QVQLVESGGGLVQAGGSLRLSCAASGITFVDYAMGWYRQAPGKEREFVAAISWSGGSTYYADSVKGRFTISRDNAKNTVYLQMNSLKPEDTAVYYCAARPKFGTAHRYYYWGQGTQVTVSS | high polyreactivity
16 | QVQLVESGGGLVQAGGSLRLSCAASGSTLAIYAMGWYRQAPGKERELVAAISRSGGTTYYADSVKGRFTISRDNAKNTVYLQMNSLKPEDTAVYYCYPYFWYPDGYTYDYWGQGTQVTVSS | high polyreactivity
17 | QVQLVESGVGLVQAGGSLRLSCAASGSIFLTYDMGWYRPAPGKERELVAAITGSGDSTYYADSVKGRFTISRDNAKNTVYLQMNSLKPEDTAVYYCNTLVGVDFWLVDYWGQGTQVTLSS | low polyreactivity
18 | QVQLVESGGCLVQAGGSLRLSCPPSGSIFIYYAMGWYRHAPGKERELVAAISWSCGDTYYADSVKGRFTISRDNAKNTVYLQMNSLKPEDTAVYYCNADFDPYYPYTAWDSVLTHDEYWGQGTQVTVSS | low polyreactivity
19 | QVKLVESGGALVQAGCSLRLSCAASARTFPVYAMGWYRQAPGKERELVAAIRYSAGSTYYADSVKGRFTISRDNAKITVYLQMNSLKPEDSSVSYCARTTPTGRQYRRYDYWGQGTQLTVSS | low polyreactivity
20 | QVQLVESGGGLVQAGGSLRLSCDASGSISVVNMGWYRQAPGKERELVASNTSSGSTTYADSVKGRFTISRDKAKNTVYLQMNRLKPEDTAVYYCAADVGTDYTYQHPAGAAYDYCGQGTQVTVSS | low polyreactivity
21 | QVQLVESGGGLVQAGGSLRLSCAASGSIFVYYAMGWYRQAPGKERELVARIRIGGSTNYADSVKGRFTISRDNAKNTVYLQMNSLKPEDTAVYYCIKYSVLSRQRYSHPVNYDSWGQGTQVTVSS | high polyreactivity
22 | QVQLVESGGGLVQAGGSLRLSCAASGRIFGGYAMGWYRQAPGKERELVAVITDGGSTNYADSVKGRFTISRDNAKNTVYLQMNSLKPEDTAVYYCAADSYGDEPPYDYWGQGTQVTVSS | low polyreactivity

Row | Sequence | polyreactivity (PSR sort gate)
23 | QVQLVESGGGLVQAGGSLRLTCAASGSIFKTNAMGWYRQAPGKERELVAAIRASGGSTYYADSVKGRFTISRDNAKNTVYLQMNSLKPEDTAVYYCAARYWFKYYWGQGTQVTVSS | low polyreactivity
24 | QVQLEESGGGLVQAGGSLRLSCAASGRIFNENAMGWYRQAPGKERELVAAITQSGGSTYYADSVKGRFTISRDNAKNTVYLQMNSLKPEDTAVYYCAAGDAYYTEALPFGEYDYWGQGTQVTVSS | low polyreactivity
25 | QVQLVESGGGLVQAGGSRRLSCAASGGTFPFNAMGWYSPAPGKERELVAAITFTTSSTYYADSVKGRFTMSRDNAKNTVYLQMTSLKPEDTAVDYCAVDYGWYSAYYRESDYWGQGTQVTVSS | low polyreactivity
26 | QVQLVESGGGLVQAGGSLRLSCAASGRIFWWYVMGWYRQAPGKERELVAAITRSGVSTYYADSVKGRFTLSRDNAKNTVYLQINSLKPEDTAVYYCNVGPWPRSYAHRGYWGQVTQVTVSS | high polyreactivity
27 | QVQLLESGGGLVQAGGSLRLSCAASGSIFYPYAMGWHRQAPGKERELVAAISYSGGSTYYADSVKGSFTISRDNAKNTVYLQMNSLKPEDSAVYYCAASVFRGSATYDSWGQGTHVTVSS | high polyreactivity
28 | QVQIVESGGGLVQAGGSLRLICAASGYTFTIYAMGWYRQAPGKERELVAAITTIGGRTYYADSVKGRFTISRDNAKNTVYLQMNSLKPEATAVYYCAARARVEGGYRGKFGYWGQGTQLTVSS | high polyreactivity
29 | QVQLVESVGGLVQAGGSLRLSCAASGSTFTDYDMGWYRQAPGKERELVADISSGGSTYYADSVKGRFTISRDNAKNTVYLQMNSLKPEDTAVYYCNTDLRLVYRTKGFISWGYDYWGQGTQVTVSS | low polyreactivity
30 | QVQLVESGGGLVQAGGSLRLSCAASGRTFTSYAMGWYRQAPGKERELVATISTGGSTNYADSVKGRFTISRDNAKNTVYFQMNSLKPEDTAVYYCAAQVDGKRQYYRYDYWGQGTQVTVSS | low polyreactivity
31 | QVQLVESGGGLVQAGGSLRLICAASAFTIRRYAMGWYRQARGKERELVAAINWNGDTTYYADSVKGRFTISSDNAKNTVYLQMNSLKPEDTAVYYCATSDYYYDYWGQGTQVTVSS | high polyreactivity
32 | QVQLVESGGGLVQAGGSLRLSCAASGRTFTSYVMGWYIQAPGKERELVAAITRGGRSYYADSVKGRFTISRDNAKKTVYLQMNSLTPEDTAVYYCGARYSVSYNYWGQGTQVTVSS | high polyreactivity
33 | QVQLVESGGGLVQAGGSLRLSCAASGSTFDGNAMGWYRQAPGKERELDAAISDGDSTTYADSVKGRFTISRDNAKNTVYLQMNSLKPEDTAVYYCNADVARSKSQASAYDYWGQVTQVTVSS | low polyreactivity
34 | QVQLVESGGGLFQAGGSLRLSCAASGSTFESNAMGWYRQAPGKERELVAAISSSGGSTYYADSVKGRFTISRDNAKNTVYLQMNSLKPEVTAVYYCNKGGLSYYDYWGQVTQVTVSS | high polyreactivity
35 | QVQLVESGGGLVQAGGSLRLSCAASGRTFGWYAMGWYRQAPGKERELVAAISLSGGSTYYADSVKGRFTISRDNAKNTVYLQMNSLKPEDTAVYYCNALILPTKMGYWGQGTQVTVSS | low polyreactivity
36 | QVQLVESGGGLVQAGGSLRLSCAASGSTFQWYVMGWYRQAPGKERELVAAITWSGGSTYYADSVKGRFTISRDNAKNTVYLQMNSLKPEDTAVYYCNAVFWIWNAGYDYWGQGTQVTVSS | low polyreactivity
37 | QVQLVESGGGLDQAGVSLRLSCAASGSTFRIYAMGWYRPAPGKERELVAAISRSGGSTYYADSVKGRFTISRDNAKNTVYLQMNSLKPEDTAVYYCAALSVASRWFGRGTGGYWGQGTQVTVSS | high polyreactivity
38 | QVQLVESGGGLVQAGGSLRLSCAASGRTFKRYAMGWYRQAPGKERELVAAISWSGTSTHYADSVKGRFTISRDNAKNTVYLQMNSLKPEDTAVYYCAARRYPVLNYDYWGQGTQVNVSS | high polyreactivity
39 | QDQLVESGGGLVQAGGSLRLSCAASGSIFFTNDMGWYRQAHGKEREFVAAITGGGGSTYYADSVKGRFTISRDNAKNTVYLQMNSLKPEDTAVYYCATKAKPRSGYNYWGQGTQVTVSS | low polyreactivity
40 | QVQLVESGGGLVQAGGSRLSCAASGLIFISYTMGWYRPAPGKERELVAAIDSSGGNTYYADSVKGRFTISRDNAKNTVYLQMNSLKPEDTAVYYCAKDVGHGAGNLMGYWGQGTQVTVSS | low polyreactivity
41 | QVQLEDSGGGLVQAGGSLPLSCAASGSIFVQYDMGWYIQAPGKERELVAAINDSGDITYYADSVKARFTISRDNAKNTIYLQMNSLKPEDTAVYYCAASAAYYGFYKSVTYDYWGQGTQVTVSS | low polyreactivity
42 | QVQLVESGGGLVQAGGSLRLSCAASGLIILPNAMGWYRQAPGKDRELVAAISSYDGSTYYADSVKGRFTISRDSAKNTVYLQMNSLKPEDTAVYYCAAGYYFQVEPDLVYIYSYEYWGQGTQVTVSS | low polyreactivity
43 | QVQLVESGGGLVQAGGSLRLSCAASGFIFAYYTMGWYRQAPGKEREFVASITYSGGNTYYADSVKGRFTISRDNAKNTVYLQMNSLKPEDTAVYYCATRDGYSISTTGLMDYWGQGTQVTVSS | low polyreactivity
